Target: T1, purified, recombinant human IL-31 fused at the C-terminal with a peptide consisting of the sequence EYMPME … (human, UniProt Q6EBC2 27-164)
T1 construct: also called human IL-31-CEE; rIL31
T1 sequence: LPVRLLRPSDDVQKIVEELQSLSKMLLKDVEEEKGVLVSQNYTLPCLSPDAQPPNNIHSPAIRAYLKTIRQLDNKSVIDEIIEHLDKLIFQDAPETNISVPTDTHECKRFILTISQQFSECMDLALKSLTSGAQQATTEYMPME
Test: capture ELISA: mAb of supernatant captured on anti-mouse IgG Fc, biotinylated IL-31-CEE
Protocol: These new supernatants were tested using the cell-based neutralization assay (serial 3-fold dilutions starting with neat supernatant and proceeding to a final 1:243 dilution) as well as a “capture” style ELISA assay similar to that used in the development of the rat anti-murine IL-31 mAbs with the following differences; 1) sheep anti-mouse IgG, Fc specific antibody (Jackson Immunoresearch) (1 ug/mL) as plate coating antibody, 2) plates blocked once with PBS-Tween+1% BSA for 1 hr, 3) a single titration of each supernatant added to wells (serial 3-fold dilutions starting with neat supernatant and proceeding to a final 1:2187 dilution), and 4) addition of biotinylated IL-31-CEE (3:1 molar ratio of biotin:protein), 200 ng/mL. This assay was felt to be more pertinent than the binding of antibody to plate bound IL-31-CEE as it assessed the ability of antibody to bind to IL-31-CEE in solution, a property essential to a good antibody for sandwich style ELISAs. It was in fact observed that a number of the master wells supernatants containing antibody that bound well to plate bound IL-31-CEE poorly recognized this molecule in solution.
To reduce the number of hybridomas going into further subcloning, two new assays were performed with exhausted supernatant from each of the selected first round clones. […]

EC50: 0.0134 µg/mL
B1: mouse anti-human IL-31 mAb 294.144.3.5 (antibody, mouse IgG1, V domains shown)
VL: ENVLTQSPAIMSASPGERVTMTCSASSSVSYMHWYQQKSSNSPKLWIYDTTKLASGVPGRFSGSGSGNSYSLTISSMEAEDVATYFCFQGSEHPLTFGGGTTLEI
VH: QVQLQQSGPELMKPGASVKISCKATGYTFSTYWIEWIKQRPGHGLEWIGEILPGRGTTNYNAKFQGKATFTAETSSNTAYMQLSSLTSEDSAVYYCTTESKLGDDDYWQGTTLTVSS
notes: Mouse IgG1; also called ATCC PTA-6873

Source: patent publication US20170355763A1 (published 2017)
